Reference: PMC12133298

Target: Rho WT (Escherichia coli) (UniProt P0AG30)
Test: EMSA
Conditions: 4 C, 1 mM ATP, 5 mM Mg2+, 25 mM Tris-Cl pH 8.0, 50 mM KCl, 5 mM MgCl2, 1 mM DTT, 37 C (or 4 C), 15 min, 0.8% agarose 0.5x TBE, 5 nM DNA

Rho WT (Escherichia coli), sequence (P0AG30 whole entry): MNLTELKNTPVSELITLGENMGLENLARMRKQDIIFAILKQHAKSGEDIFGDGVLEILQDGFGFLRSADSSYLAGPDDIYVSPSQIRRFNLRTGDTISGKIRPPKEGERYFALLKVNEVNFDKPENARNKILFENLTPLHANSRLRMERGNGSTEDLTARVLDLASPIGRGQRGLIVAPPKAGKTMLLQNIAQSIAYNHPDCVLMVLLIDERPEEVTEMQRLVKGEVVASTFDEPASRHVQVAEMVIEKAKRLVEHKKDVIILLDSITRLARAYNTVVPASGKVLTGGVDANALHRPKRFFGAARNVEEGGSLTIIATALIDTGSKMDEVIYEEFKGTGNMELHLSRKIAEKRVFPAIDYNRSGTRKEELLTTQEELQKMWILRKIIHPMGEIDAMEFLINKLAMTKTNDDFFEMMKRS

Substance: 3.5 kb linear dsDNA
- Kd: 12 nM
